Columns and labels:
[1] = target: SUDV GPddmuc (Sudan virus (SUDV), UniProt Q66814 33-650); assay: ELISA
[2] = target: EBOV GPddmuc (Ebola virus (EBOV), UniProt Q05320 33-650); assay: ELISA
[3] = target: MARV GPddmuc (Marburg virus (MARV), UniProt P35253 19-648); assay: native ELISA

| Binder | EC50 [1] | EC50 [2] | binding result [3] |
| --- | --- | --- | --- |
| FVM28 (antibody, V domains shown) VH: EVQLVQSGAEVKRPGESLKISCQTSGYRFTSSWISWVRQMPGKGLEWMGAIDPSDSETRYSPSFQGQVTISADKSISTAYLKWSSLKASDTATYYCVKGSETWGQGVLVTVSS VL: QAALTQPASLSASPGASASLTCTFSGGINVAGYHILWYQQKPGSPPRYLLRYKSDSEKDQGSGVPSRFSGSKDASANRGILRISGLQSEDEADYYCAIGHSSSGWVFGGGTRLTVL | 0.047 nM | 0.047 nM | no binding |
| FVM25 (antibody, V domains shown) VH: EVQLVHSGAEVKRPGESLTISCKTSGYTFTDYWIAWVRQMPGKGLEWMASIYPDDSDTRYNPSFQGHVTISADKSISTTYLQWSSLRASDTATYYCVKGSETWGQGVLVTVSS VL: QLVLTQPASLSASPGTSASLTCTFSGGINVAGYNILWYQQKPGSPPRFLLRYKSDSDNVQGSGVPSHFSGSKDASTNTGILRISGLQSEDEADYYCAIGHSSGWVFGGGTRLTVL | 0.18 nM | 0.12 nM | no binding |
| FVM24 (antibody, V domains shown) VH: EVQLVQSGAEVKRPGESLKISCKTSGYSFTDSWVAWVRQMPGKGLEWMGSIYPGDFQTRYNPSFQGHVTLSADKSISTTYLQWSSLKASDTATYYCVKGSETWGPGVLVTVSS VL: SSGLTQPASLSASPGASASLTCTFSGGINVAGYNILWYQQKAGSPPRYLLRYKSDSTKDQGSGVPSRFSGSKDVSANTGILRISGLQSDDEADYYCAIGHSSGWIFGGGTRLTVL | 0.12 nM | 0.153 nM | no binding |
| FVM19 (antibody, V domains shown) VH: QVQLVQSGAEVKRPGESLTISCKTSGYSFTDSWVAWVRQMPGKGLEWLGSIYPGDSDTKYNPSFQGHVTISADKSVTTTYLKWSSLKASDTATYYCVKGSETWGQGVLVTVSS VL: KPMLTQPASLSASPGASASLTCTFSGGINVAGYHIFWYQQKPGSPPRYLLRYKSDSDKGQGSGVPSRFSGSKDASANTGILRISGLQSEDEADYYCAIGHSSGLLFGGGTRLTVL | 0.267 nM | 0.12 nM | no binding |
| FVM21 (antibody, V domains shown) VH: EVQLVESGAEVKRPGESLTISCKTSGYSFTDSWVAWVRQMPGKGLEWLGSIYPGDSETKYNPSFQGHVTISADKSISTTYLQWSSLRASDTATYYCVKGADDWGPGLLVTVSS VL: SSELTQPASLSASPGASASLTCTFSGGINVAGYNILWYQQKAGSPPRYLLRYKSDSDKGQGSGVPSRFSGSKDASANTGILRISGLQSEDEADYYCAIGHSSGWIFGGGTRLTVL | 0.067 nM | 0.067 nM | no binding |
| FVM32 (antibody, V domains shown) VH: QVQLVQSGAEVKRPGESLRISCKTSGYSFTDSWVAWVRQMPGKGLEWLGSIYPGDSDTRYSPSFQGQVTISADKSITTAYLKWSSLKASDTATYYCVKGSETWGQGVLVTVSS VL: QPVLTQPASLSASPGASASLTCTFNGGITVPGYDILWYQQKSGSPPRYLLRYKSDSTKDQGSGVPSRFSGSKDASTNTGILRISGLQSEDEADYYCAIGHSSGWIFGGGTRLTVL | 0.127 nM | 0.073 nM | no binding |
| FVM23 (antibody, V domains shown) VH: QVQLVQSGAEVKRPGESLTISCKTSGYSFTGSWISWVRQMPGKGLEWMGSIYPGDSDTTYNPSFQGHVTISADKSISTAYLQWTSLKASDTATYYCVKGSETWGQGVLVTVSS VL: SYELTQPASLSASPGASASLTCTFSGGINVAGYNILWYQQKAGSPPRYLLRYKSDSTKDQGSGVPSRFSGSKDASANTGILRISGLQSEDEADYYCAIGHSSGLIFGAGTRLTVL | 0.08 nM | 0.087 nM | no binding |

Reference: US20170334973A1 (INTEGRATED BIOTHERAPEUTICS, published 2017)
